Laboratory results as given in article PMC4109681 (Molecular cell, 2013).
One block for each molecule: values may come before it.

T1: purified Hrd1p^321-551, containing its RING finger domain (Saccharomyces cerevisiae, UniProt Q08109 321-551)
T1 sequence (looked up): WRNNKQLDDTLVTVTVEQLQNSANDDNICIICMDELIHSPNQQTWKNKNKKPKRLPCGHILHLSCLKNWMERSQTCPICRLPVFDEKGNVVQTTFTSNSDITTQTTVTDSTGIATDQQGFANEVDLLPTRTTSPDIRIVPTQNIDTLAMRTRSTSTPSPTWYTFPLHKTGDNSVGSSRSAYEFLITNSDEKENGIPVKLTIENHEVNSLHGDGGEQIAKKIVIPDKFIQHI

B1: purified Doa10p^1-112 RING fragment (domain or fragment, Saccharomyces cerevisiae, UniProt P40318 1-112, looked up)
chain: MDVDSDVNVSRLRDELHKVANEETDTATFNDDAPSGATCRICRGEATEDNPLFHPCKCRGSIKYMHESCLLEWVASKNIDISKPGADVKCDICHYPIQFKTIYAENMPEKIP
B2: ^15N-Ubc7p (from pET3a-GB1-His6-Thrombin-Ubc7p) (enzyme, Saccharomyces cerevisiae, UniProt Q02159 1-165, looked up)
chain: MSKTAQKRLLKELQQLIKDSPPGIVAGPKSENNIFIWDCLIQGPPDTPYADGVFNAKLEFPKDYPLSPPKLTFTPSILHPNIYPNGEVCISILHSPGDDPNMYELAEERWSPVQSVEKILLSVMSMLSEPNIESGANIDACILWRDNRPEFERQVKLSILKSLGF
modifications: 15N-labelled
B3: Ubc7p:U7BR complex (for NMR titration) (complex, Saccharomyces cerevisiae)
chain 1: B2 chain
chain 2: LLDKFHVDLNEDMSNLSFKDLDIEERKRLLVWQARKNLETKLQSDKDLQSLLT
modifications: 15N-labelled

Key:
[1] = biological target: GST-Cue1p^151-203 U7BR^m4 (Saccharomyces cerevisiae) (UniProt P38428); experiment: pull-down
[2] = biological target: B3; experiment: NMR titration
^15N-Ubc7p (from …) = biological target: B2; experiment: NMR titration
[3] = biological target: T1, purified Hrd1p^321-551, containing its …; experiment: NMR titration

loss of binding against wild-type [1]: 40%
Molecule: in vitro transcribed and translated ^35S-labeled Ubc7p (from UniProt Q02159 1-165) (enzyme)

Molecule: B1
binding result [2]: binds
binding result (^15N-Ubc7p (from …)): binds

Molecule: B2
Kd [3]: 107 µM

Molecule: B3
Kd [3]: 13.4 µM
